What all share (format): cell-based, human
Series [1] has as its system T3M4 cells. The experiment in a line: in vitro wound-healing (migration) assay, shRNA infected T3M4 cells. To be noted: serum free; 24 hours; percentage change in wound area. As for the experimental part: To assess the motility properties, in vitro wound-healing assays or migration assays were performed. Cells were grown to confluence in 6-well tissue culture plates, serum starved overnight, and the monolayer was scratched with a 200 μL pipette tip generating two parallel wounds. The scratched wells were washed to remove cell debris and incubated for the next 24 hours in serum free media in the absence or presence 1 nmol/L EGF with or without the Src family kinase inhibitor PP2 (4-amino-5-(4-chlorophenyl)-7-(t-butyl)pyrazolo[3,4-d]pyrimidine) (Alexis, La Jolla, Calif.). To monitor cell migration, photographs were taken of each well at five marked locations under 40× magnification immediately after wounding (t0) and again 24 hours after wounding (t24), using an inverted microscope fitted with a digital camera (Nikon Diaphot 300, Nikon, Japan). The wound area of five matched pictures at t0 and t24 from each well were then measured using the ImageJ software (NIH, Bethedsa, Md.), and the percentage change in the wound area was calculated.

The subject of a further series is 14-3-3σ. The experiment in a line: downregulation of 14-3-3σ by lentiviral shRNA in T3M4 cells (western blotting, Q-PCR). To be noted: for 14-3-3σ levels: MOI of 40.
Series [2] relates to T3M4 cells. Put plainly: cisplatinum induced apoptosis, immunoblot of cleaved PARP and cleaved caspase-3, shRNA infected T3M4 cells. To be noted: cisplatinum 10 νg/mL for 2, 6, or 24 hours. As for the experimental part: Sham or 14-3-3σ transfected PANC-1 cells were incubated for 24 hours in complete medium in the absence or presence of 10 μg/mL of cisplatinum. Scrambled or 14-3-3σ specific shRNA infected T3M4 cells were incubated in complete medium for 24 hours that was supplemented with 10 μg/mL cisplatinum for the initial 2 or 6 hours, or the entire 24 hours. Both floating and adherent cells were then collected and lysed in the buffer containing protease inhibitors, subjected to 10% SDS-PAGE, and immunoblotted with specific antibodies against cleaved Poly (ADP-ribose) Polymerase (PARP) and cleaved caspase-3 (Cell Signaling Technology, Danvers, Mass.).

B1: shCtrl: scrambled control shRNA not targeting any known mammalian gene, SEQ ID NO: 28 and 29 (nucleic acid)
chain 1: TACGAGCGAGGTGCCGATATTTCAAGAGAATATCGGCACCTCGCTCGTTTTTTTC
chain 2: TCGAGAAAAAAACGAGCGAGGTGCCGATATTCTCTTGAAATATCGGCACCTCGCTCGTA
Turning to B1, the “basal motility of shRNA infected cells” value in the series on T3M4 cells [1] amounted to 20%. Moreover, the 14-3-3σ levels result in the series with 14-3-3σ is “did not alter”.

B2: sh2: lentiviral shRNA targeting 14-3-3σ, SEQ ID NO: 26 (sense) and 27 (antisense) (nucleic acid)
sense: TGGAGAGAGCCAGTCTGATCTTCAAGAGAGATCAGACTGGCTCTCTCCTTTTTTC
antisense: TCGAGAAAAAAGGAGAGAGCCAGTCTGATCTCTCTTGAAGATCAGACTGGCTCTCTCCA
Take B2: the “basal motility of shRNA infected cells” value in the series with T3M4 cells [1] came to 20%. In the series with 14-3-3σ, the “knockdown of 14-3-3σ, sh2 relative to sh1” value is “more effective than sh1” and the 14-3-3σ levels result is reported as “reduce”. Moreover, in the series with T3M4 cells [2], the “sensitivity of sh2 infected cells to cisplatinum compared to sh1” value was “relatively more sensitive” and the “sensitivity of shRNA infected cells to cisplatinum versus control cells” value is reported as “significantly more sensitive than control cells”.

B3: sh1: lentiviral shRNA targeting 14-3-3σ, SEQ ID NO: 24 (sense) and 25 (antisense) (nucleic acid)
sense: TCGAGACAACCTGACACTGTTTCAAGAGAACAGTGTCAGGTTGTCTCGTTTTTTC
antisense: TCGAGAAAAAACGAGACAACCTGACACTGTTCTCTTGAAACAGTGTCAGGTTGTCTCGA
Turning to B3, the “basal motility of shRNA infected cells” value with T3M4 cells [1] was found to be 20%. Further, in the series on 14-3-3σ, the 14-3-3σ levels result is “reduce”. Also, the “sensitivity of shRNA infected cells to cisplatinum versus control cells” value in the series on T3M4 cells [2] is recorded as “significantly more sensitive than control cells”.

Values taken from patent US20110152358A1, “Compositions and Methods for Diagnosis and Treatment of Pancreatic Ductal Cancer” (priority 2008, published 2011).
